Measurements published in patent US6589750B2, “Therapeutic use of the SMR1 protein, the SMR1 maturation products, specifically the QHNPR pentapeptide as well as its biologically active derivatives” (Institut Pasteur, priority 1997, dated 2003).
Square brackets hold non-standard residues; d marks the D form. Ends that are not written are not given here. pGlu = O=C1CC[C@@H](C(=O)O)N1

Assays:
[1] = Pentapeptide metabolic and pharmacokinetic study after i.v. bolus of tritiated pentapeptide; type: in vivo, rat
Method: The in vivo time course of distribution, metabolism and elimination of the pentapeptide was investigated in anesthetized adult male rats using physiological concentrations of circulating tritiated pentapeptide.
Anesthetized male rats were given a bolus intravenous injection of 170 pmoles or 110 ng tritiated pentapeptide diluted in 100 μl PBS Dulbecco's. Blood was collected in tubes containing a mixture of peptidase inhibitors described above, via a silastic catheter implanted into the external jugular vein. Blood was withdrawn just before and 2, 4, 6, 8, 10, 20, 30, 45, 60, 90 and 120 min. after peptide administration. Two milliliters of blood per rat were taken in all and the entire urinary bladder content was collected at a last selected point.
The biological samples were submitted to centrifugation and Parapak Q extraction conditions, as described above. Chromatrography using HPLC procedure described above and in the reference (Rougeot et al., 1994) was then applied to each extracted sample. The ODS AQ RP-C18 was used for identification of amino-terminal metabolites and Pep RPC HR C18 (Pharmacia, France) for identification of carboxyl-terminal metabolites. The radioactivity content of samples before and after chromatographic separations was determined using a beta counter (Kontron, MR300).

[2] = system: pentapeptide binding sites; assay: Cellular localization of 3H-pentapeptide binding sites by light microscopic autoradiography, in vivo radiolabeling; parameters: species or system rat
Method: The cellular-site localization for physiological concentrations of labeled pentapeptide was investigated by paraffin- or resin-section microscopic autoradiography procedure.
Sixty minutes after ^3H-pentapeptide (555 KBq, 160 ng or 250 pmoles) i.v. administration, the anesthetized male rats were perfused via the jugular veins with ice-cold Krebs Ringer Bicarbonate Glucosed buffer and then 0.5% paraformaldehyde/0.5% glutaraldehyde fixative PBS buffer (plus glucose 1.6%, CaCl2 0.002% and DMSO 1%) (50 ml/5 min. for each). Tissues were rapidly removed and harvested for paraffin sectioning (Paraplast plus-Sherwood medical, OSI, France) or for resin sectioning (histo-resin Leica, France). All sections were cut at 5 microns (Reichert Jung for paraffin and RM2155 Leica for resin sections) and mounted on Superfrost/Plus glass slides (non gelatin-coated). Paraffin was removed with xylene, and sections were carried through a descending, then an ascending ethanol series (from 100 to 50%, VN and reverse). Dried sections were then processed for light microscope autoradiography by attaching nuclear emulsion-coated (Kodak, NTB2, diluted 1:1 with distilled water) coverslips to them. After air drying for 2 hrs at room temperature the autoradiographs were exposed for 6 to 10 weeks in light-tight boxes at 4° C. Radiosensitive coverslips were developed in Kodak D19 (3 min.) developer and fixed in Kodak fixer (3 min.) Sections were counterstained with Harris' hematoxylin (Prolabo, France) and Toluidine blue (Sigma, France), dehydrated and mounted in Eukitt medium. The tissue and overlying silver grains were viewed and photographed with a Leica photomicroscope equipped with bright-field optics (DMRD Leitz, Leica).

[3] = system: peptide binding sites; assay: In vivo displacement experiments with coinjection of 100-fold excess of unlabeled peptide; parameters: species or system rat
From the text: Biological receptor sites have two essential characteristics that allow specific binding to be identified, in vivo; they have a high affinity for the ligand and the binding is saturable (Whitcomb et al., 1993). Therefore, displacement experiments, using parallel systemic administration of an excess of the corresponding unlabeled peptide has been performed. Furthermore, the specific cellular localization of labeled pentapeptide to target tissues has been identified by section microscopic autoradiography.
The tritium activity was determined as counts/mm^2.
In the case of radioactive quantification of organ sections or acid extracts, using a liquid scintillation counter (MR300 Kontron), the tritium activity was determined as cpm/mg protein. Protein concentration was determined by the Bradford method (Bradford et al., 1976).

[4] = Chromatographic characterization of radioactive peptide uptake by tissues (methanol extraction, RP-HPLC); type: in vivo, rat
Method: The chromatographic characteristics of the labeled compound associated, in vivo, to target organs were assessed by HPLC.
At selected time points (2 and 180 min.) after administration of tritiated pentapeptide, the anesthetized rats were sacrificed (cardiac blood puncture) and tissues quickly removed on ice. The tissues were immediately homogenized at 4° C. in 5-10 volumes of 0.1 M chlorhydric acid using a potter homogenizer (demineralization of bone tissue was realized after 24-48 h at 4° C. in guanidium hydrochloride and EDTA pretreatment, 4 M and 0.25 M final concentration, respectively). Homogenates were centrifuged for 30 min. at 4° C. and 15,000 g. To determine total radioactivity, aliquots of the supernatant solution were added to 50 volumes of Biofluor (NEN, Dupont de Nemours, France) and counted in a liquid scintillation counter.
To determine the radioactivity in the pentapeptide fraction, aliquots of the tissue extracts were submitted to a methanol-extraction procedure (Rougeot et al., 1994) after neutralization with Tris/HCl pH 8.5 containing 16 mM DTPA (DiethyleneTriaminePenta-Acetic acid, Sigma, France). The methanol phase was removed from the supernatant by partial evaporation, then lyophilization and the reconstituted aqueous phase containing 16 mM DTPA was applied to ODS AQ column (HPLC RP C18 chromatography) (AIT, France). Elution with a linear gradient of 0.1% trifluoro acetic (TFA) in water/0.1% TFA in acetonitrile (Merck, France) from 100/0 (vol/vol) to 50/50 (vol/vol) was performed for 30 min. at a flow rate of 1 ml/min. Fractions were collected every 60 sec. and analyzed for radioactivity using a liquid scintillation counter.

[5] = rat, in vivo
Method: Labeled compound i.e. 6.66 MBq, 3 nmoles or 2 mg for whole body autoradiography (WBA) and 370-555 KBq, 170-250 pmoles or 110-160 ng for the pharmacokinetic and cellular-site distribution studies was diluted in 100-200 ml of phosphate-buffered saline (PBS Dulbecco's, Bio Media, France) and administered intravenously into the jugular vein of anesthetized rats (halothan for WBA or pentobarbital for all the other experiments).
The five week-old rats were sacrificed under halothane, at 90 sec., 3, 60 and 240 min. after i.v. injection of 3 nmoles (6.66 MBq or 2 μg) of tritiated pentapeptide. At the selected time, the restrained animal was immediately immersed in a −80° C. mixture of dry ice and isopentane, to prevent artefactual tracer redistribution. After 48 hours in self-sealing plastic stored at −30° C., the animal was then blocked in mounting medium. Whole body sagittal sections (20 mm) of the frozen rat were made at −30° C. with a cryostat (whole body slicing microtome Leitz 400 with a chest mobil freezer Leitz O M, Leica, France). […]
The quantitative determination of the radioactivity in various organ sections was carried out by using a gaseous detector of β-particles, which has recently been developed (Charpak et al., 1989; Tribollet et al., 1991). […] The number of counts per pixel was recorded in the β imager 2200 (Biospace, France) with a surface detector of 20×20 cm^2, followed by computer-assisted image analysis with the β Vision program using a HP Vectra computer. The tritium activity was determined as counts/mm^2. The linearity of this method of detection allowed measurement of the non specific binding of ^3H-pentapeptide, measured in various structures or compartments within the section with apparent non binding sites for the peptide (background tissues, e.g. muscle and cardiac blood except brain and spinal cord) or in the same labeled structure, in displacement experiments. […]
Assessment of tissue peptide targeting was accomplished by a β-radio imager quantification (FIG. 2). […]

[6] = target: anti-pentapeptide serum; assay: competitive liquid phase RIA, unlabelled standard displaces 125I-labelled pentapeptide from the antiserum
[7] = 60 min, 100-fold excess unlabeled peptide
[8] = 180 min after injection, DTPA extraction

QHNPR (not fully specified (residue 4)) [pentapeptide]
radioactivity eliminated through glomerular filtration ([1]; anesthetized rats, over a 60 min period, 170 pmoles injected): 6 pmol | distribution volume ([1]; male rat): 35-40 ml/100 g. body weight | pentapeptide-binding substance complex as share of circulating peptide fraction ([1]; plasma, dissociated by acidic pH treatment): approximately 45% | time from which plasma concentration is close to basal level ([1]; single i.v. injection of 110 ng tritiated pentapeptide): 30 min | time to maximal plasma level ([1]; single i.v. injection of 110 ng tritiated pentapeptide, two male rats): ≤ 2 min | urine radioactivity that is pentapeptide metabolites ([1]; urinary bladder content): Approximately 80% | infused pentapeptide metabolized in the bloodstream ([1]; within 4 min, proteolysis from the amino-terminal part): 35% | cellular localization of label in submandibular tissue ([2]; 60 min post-injection): no selective cell association of label was identifiable | cellular localization of silver grains in glandular gastric mucosa ([2]; 60 min post-injection): over the chief or peptic cells | cellular localization of silver grains in pancreatic tissue ([2]; 60 min post-injection): over the cells of acini | localization of silver grains in upper incisor root ([2]; 60 min post-injection): over the entire dentin layer | cellular localization of silver grains in kidney ([2]; 60 min post-injection of physiological concentration (160 ng)): over the epithelial cells of the S3 segment of the straight portion of the proximal tubules | specific labeling percentage, glandular mucosa of the stomach [3, 7]: 38-61% | specific labeling percentage, long bone [3, 7]: 29-38% | specific labeling percentage, pancreatic lobules [3, 7]: 37-55% | specific labeling percentage, submandibular lobules [3, 7]: 51-91% | displacement of 3H-pentapeptide uptake within the renal outer medullary ([3]; 60 min post-coinjection of 100-fold excess of unlabeled peptide): almost complete displacement | specific labeling percentage, kidney ([3]; FIG. 8-B, depends on analysis method (total tissue count or regional analysis)): 12 to 92% | tissue radioactivity extracted from acid homogenates by methanol ([4]; 5-20 min survival time after 3 nmoles 3H-pentapeptide): 72±4% | radioactive peptide fraction extracted by methanol with DTPA (16 mM) ([4]; 180 min after injection): 53±9% | radioactive extract representing metabolites [4, 8]: 8±6% | radioactive extract representing undissociated peptide complex [4, 8]: 29±14% | radioactivity recovered in RP-HPLC peak of free pentapeptide ([4]; 180 min after injection, DTPA extraction, target organs): 52±8% | persistence of label within target tissues [5]: > 240 min | radioactivity in intestinal content [5]: No radioactivity was found in the intestinal content | tissue to blood ratio [5]: ~2

[pGlu]HNPR [[Glp^1] pentapeptide]
50% displacement of the 125I-labelled pentapeptide [6]: < 570 fmol | detection limit (80% binding) [6]: 106 fmol

QHNPR [[Gln^1] pentapeptide]
50% displacement of the 125I-labelled pentapeptide [6]: < 570 fmol | detection limit (80% binding) [6]: 106 fmol
